Test [1] relates to carbapenem-resistant clinical strain, WC-452. Briefly: Checkerboard assay to examine synergy with antibiotics in CAA/HuS. Type of test: cell-based, P. aeruginosa. The following applies: for FICI, Amikacin: lysin + amikacin; for FICI, Azithromycin: lysin + azithromycin; for FICI, Aztreonam: lysin + aztreonam; for FICI, Ciprofloxacin: lysin + ciprofloxacin; for FICI, Colistin: lysin + colistin; for FICI, Fosfomycin: lysin + fosfomycin; for FICI, Gentamicin: lysin + gentamicin; for FICI, Imipenem: lysin + imipenem; for FICI, Meropenem: lysin + meropenem; for FICI, Piperacillin: lysin + piperacillin; for FICI, Rifampicin: lysin + rifampicin; for FICI, Tobramycin: lysin + tobramycin. The protocol:
Fractional inhibitor concentration index (FICI) values were determined for all combinations; values of <0.5 indicate synergy.
The checkerboard assays is based on a modification of the CLSI method for MIC determination by broth microdilution (26, 29). Checkerboards were constructed by first preparing columns of a 96-well polypropylene microtiter plate, in which each well had the same amount of antibiotic diluted 2-fold along the horizontal axis. […] Summation fractional inhibitory concentrations (ΣFICs) were calculated for each drug and the minimum ΣFIC value (ΣFICmin) was used to determine synergy. ΣFICs were calculated as follows: ΣFIC=FIC A+FIC B, where FIC A is the MIC of each antibiotic in the combination/MIC of each antibiotic alone, and FIC B is the MIC of each GN lysin in the combination/MIC of each GN lysin alone. The combination is considered synergistic when the ΣFIC is ≤0.5, strongly additive when the ΣFIC is >0.5 to <1, additive with the ΣFIC is 1−<2, and antagonistic when the ΣFIC is ≥2.

The test system of test [2] is P. aeruginosa. The test can be described thus: Minimal inhibitory concentration (MIC), modified CLSI broth microdilution in CAA or CAA/HuS. Type of test: cell-based, Pseudomonas aeruginosa. As to conditions: for MIC (μg/mL) in CAA: CAA media; for MIC (μg/mL in CAA/HuS) / MIC value in CAA/HuS: CAA supplemented with 25% human serum.
Test [3] has as its system P. aeruginosa. The test can be described thus: Time-kill assay of GN lysin activity. The class given is cell-based, Pseudomonas aeruginosa. The following applies: lysin 10 μg/mL, T = 0 7.8; for Log10 CFU/mL T = 3 hr: buffer control 7.2, limit of detection 3.7; for Log10 CFU/mL T = l hr: buffer control 7.7. The protocol:
All treatments were incubated at 37° C. with aeration.

For test [4], the system named is P. aeruginosa strain ATCC 17647. Briefly: Minimal Biofilm Eradicating Concentration (MBEC), Calgary Biofilm Device. The class given is cell-based, Pseudomonas aeruginosa. The following applies: 24 h biofilm, 24 h treatment; minimum concentration removing >95% of biofilm biomass (crystal violet). From the text: All samples were examined in triplicate.
The mark [5] stands for this setting: CAA/HuS, ‡ indicates bactericidal activity.
Where [6] appears, read: HEPES buffer, ‡ indicates bactericidal activity.

The record followed here is patent US20220160843A1 (priority 2019, published 2022).

B1: GN147: Modified GN3, amino acid substitutions (R101D, R117H), SEQ ID NO: 5 (protein)
chain: MRTSQRGLSLIKSFEGLRLQAYQDSVGVWTIGYGTTRGVKAGMKISKDQAERMLLNDVQRFEPEVERLIKVPLNQDQWDALMSFTYNLGAANLESSTLRDLLNAGNYAAAAEQFPHWNKAGGQVLAGLTRRRAAERELFLGAA
Take B1: in test [1], the “synergy with antibiotics in the checkerboard assay” value (“synergy with antibiotics” for short) is “synergize with a range of antibiotics”; the “FICI, Amikacin” value is recorded as 0.375; the “FICI, Azithromycin” value is 0.250; the “FICI, Aztreonam” value is on record as 0.188. Moreover, in test [1], the “FICI, Ciprofloxacin” value was 0.281; the “FICI, Colistin” value stood at 0.188; the “FICI, Fosfomycin” value was determined as 0.250; the “FICI, Gentamicin” value amounted to 0.375. Besides, in test [1], the “FICI, Imipenem” value is 0.375; the “FICI, Meropenem” value came to 0.375; the “FICI, Piperacillin” value was found to be 0.188; the “FICI, Rifampicin” value was 0.281. In addition, in test [1], the “FICI, Tobramycin” value is recorded as 0.5. In the test on P. aeruginosa [2], the “MIC (μg/mL) in CAA” value came to 2 µg/mL, the “MIC (μg/mL in CAA/HuS)” value came out at 4 µg/mL and the MIC value in CAA/HuS was 4 µg/mL. In addition, the “Log10 CFU/mL T = 3 hr” value in the test with P. aeruginosa [3] (setting [5]) is on record as 4.2‡ Log10 CFU/mL. The “Log10 CFU/mL T = l hr” value in the test on P. aeruginosa [3] (CAA/HuS) is 6.5 Log10 CFU/mL. Besides, in the test on P. aeruginosa [3] (setting [6]), the “Log10 CFU/mL T = 3 hr” value is listed as <3.7‡ Log10 CFU/mL and the “Log10 CFU/mL T = l hr” value is recorded as <3.7‡ Log10 CFU/mL. Further, in test [4], the “MBEC” value came out at 0.25 µg/mL.

B2: GN37: Native lysin, WP_014102102.1/VanY, SEQ ID NO: 12; first disclosed in WO/2017/049233 (protein, listed as Micavibrio aeruginosavorus)
chain: MTYTLSKRSLDNLKGVHPDLVAVVHRAIQLTPVDFAVIEGLRSVSRQKELVAAGASKTMNSRHLTGHAVDLAAYVNGIRWDWPLYDAIAVAVKAAAKELGVAIVWGGDWTTFKDGPHFELDRSKYR
Take B2: in test [1], the “synergy with antibiotics” value is reported as “synergize with a range of antibiotics”; the “FICI, Amikacin” value worked out at 0.125; the “FICI, Azithromycin” value is recorded as 0.188; the “FICI, Aztreonam” value came out at 0.531. Besides, in test [1], the “FICI, Ciprofloxacin” value is 0.281; the “FICI, Colistin” value is listed as 0.156; the “FICI, Fosfomycin” value is listed as 0.313; the “FICI, Gentamicin” value is on record as 0.313. Moreover, in test [1], the “FICI, Imipenem” value is recorded as 0.313; the “FICI, Meropenem” value is reported as 0.500; the “FICI, Piperacillin” value turned out to be 0.375; the “FICI, Rifampicin” value was 0.281. Besides, in test [1], the “FICI, Tobramycin” value was 0.156. In the test with P. aeruginosa [2], the “MIC (μg/mL) in CAA” value is more than 128 µg/mL, the “MIC (μg/mL in CAA/HuS)” value was found to be 32 µg/mL and the MIC value in CAA/HuS was determined as 32 µg/mL. Further, in the test with P. aeruginosa [3] (setting [5]), the “Log10 CFU/mL T = 3 hr” value is <3.7‡ Log10 CFU/mL. Besides, in the test with P. aeruginosa [3] (CAA/HuS), the “Log10 CFU/mL T = l hr” value turned out to be 6.2 Log10 CFU/mL. Further, in the test with P. aeruginosa [3] (setting [6]), the “Log10 CFU/mL T = 3 hr” value was <3.7‡ Log10 CFU/mL and the “Log10 CFU/mL T = l hr” value is recorded as 6.3 Log10 CFU/mL. Also, in test [4], the “MBEC” value stood at 0.25 µg/mL.

B3: GN92: Modified GN4, N-terminal peptide KFFKFFKFFK with linker, SEQ ID NO: 7 (protein)
chain: KFFKFFKFFKAGAGAGAGAGAGAGAGASMRTSQRGIDLIKSFEGLRLSAYQDSVGVWTIGYGTTRGVTRYMTITVEQAERMLSNDIQRFEPELDRLAKVPLNQNQWDALMSFVYNLGAANLASSTLLKLLNKGDYQGAADQFPRWVNAGGKRLDGLVKRRAAERALFLEPLS
For B3, in test [1], the “synergy with antibiotics” value is reported as “synergize with a range of antibiotics”; the “FICI, Amikacin” value is reported as 0.375; the “FICI, Azithromycin” value was found to be 0.063; the “FICI, Aztreonam” value worked out at 0.188. In test [1], the “FICI, Ciprofloxacin” value is recorded as 0.281; the “FICI, Colistin” value was found to be 0.094; the “FICI, Fosfomycin” value stood at 0.500; the “FICI, Gentamicin” value is on record as 0.375. Also, in test [1], the “FICI, Imipenem” value is 0.125; the “FICI, Meropenem” value is 0.375; the “FICI, Piperacillin” value turned out to be 0.500; the “FICI, Rifampicin” value was 0.094. In addition, in test [1], the “FICI, Tobramycin” value is 0.500. Further, in the test on P. aeruginosa [2], the “MIC (μg/mL) in CAA” value is 32 µg/mL, the “MIC (μg/mL in CAA/HuS)” value was found to be 4 µg/mL and the MIC value in CAA/HuS was 4 µg/mL. Also, in the test with P. aeruginosa [3] (setting [5]), the “Log10 CFU/mL T = 3 hr” value is on record as <3.7‡ Log10 CFU/mL. In addition, the “Log10 CFU/mL T = l hr” value with P. aeruginosa [3] (CAA/HuS) turned out to be 6.2 Log10 CFU/mL. Also, in the test with P. aeruginosa [3] (setting [6]), the “Log10 CFU/mL T = 3 hr” value is reported as <3.7‡ Log10 CFU/mL and the “Log10 CFU/mL T = l hr” value stood at 5.7 Log10 CFU/mL. In addition, in test [4], the “MBEC” value was determined as 0.5 µg/mL.

B4: GN4: Native lysin, YP_002284361.1/Lysozyme, SEQ ID NO: 3; first disclosed in WO/2017/049233 (protein)
chain: MRTSQRGIDLIKSFEGLRLSAYQDSVGVWTIGYGTTRGVTRYMTITVEQAERMLSNDIQRFEPELDRLAKVPLNQNQWDALMSFVYNLGAANLASSTLLKLLNKGDYQGAADQFPRWVNAGGKRLDGLVKRRAAERALFLEPLS
modifications: Pseudomonas phage PAJU2
As for B4, in test [1], the “synergy with antibiotics” value is “synergize with a range of antibiotics”; the “FICI, Amikacin” value was 0.531; the “FICI, Azithromycin” value was found to be 0.094; the “FICI, Aztreonam” value is listed as 0.156. Further, in test [1], the “FICI, Ciprofloxacin” value was 0.250; the “FICI, Colistin” value stood at 0.156; the “FICI, Fosfomycin” value is 0.250; the “FICI, Gentamicin” value was determined as 0.375. In addition, in test [1], the “FICI, Imipenem” value worked out at 0.125; the “FICI, Piperacillin” value amounted to 0.313; the “FICI, Rifampicin” value stood at 0.156; the “FICI, Tobramycin” value is listed as 0.375. In the test on P. aeruginosa [2], the “MIC (μg/mL) in CAA” value was 64 µg/mL, the “MIC (μg/mL in CAA/HuS)” value amounted to 16 µg/mL and the MIC value in CAA/HuS is 16 µg/mL. Moreover, in the test with P. aeruginosa [3] (setting [5]), the “Log10 CFU/mL T = 3 hr” value was <3.7‡ Log10 CFU/mL. In the test with P. aeruginosa [3] (CAA/HuS), the “Log10 CFU/mL T = l hr” value stood at 6.0 Log10 CFU/mL. Also, in the test with P. aeruginosa [3] (setting [6]), the “Log10 CFU/mL T = 3 hr” value was <3.7‡ Log10 CFU/mL and the “Log10 CFU/mL T = l hr” value was found to be 5.7 Log10 CFU/mL. The “MBEC” value in test [4] was 1 µg/mL.
